# Reference: patent US12428658B2, “Methods and compositions for enzymatic polymerization of N3′→P5′ phosphoramidate DNA” (The General Hospital Corporation, priority 2019, dated 2025)
# Like-named read-outs stand apart in the source and are kept apart here.
# What was measured:
# [1] = test system: 3′-amino terminal DNA primer / mixed sequence template duplex; assay: Multiple-turnover NP-DNA synthesis by 3′-amino primer extension with all four nNTPs on a mixed sequence template; type: biochemical; conditions: 55° C., Ca2+
# Experimental: (§1) Primer extension assays. Except where indicated, all extension reactions were performed with 1 μM fluorescein-labeled primer, 1.5 μM template, and ˜1.1 μM purified His6-tagged protein at 55° C. in a reaction buffer composed of 40 mM Tris-HCl, pH 8.8, 1 mM DTT, and a divalent cation as specified, typically 10 mM CaCl2. Reaction mixtures were equilibrated at the indicated reaction temperature for 1 min and initiated by addition of substrate. Progress was monitored by sampling 1 μL from the reaction manually quenched into 24 μL of chilled 90% formamide, 10 mM EDTA. Quenched samples were denatured at 90° C. for 1 min and cooled to room temperature prior to separation by denaturing polyacrylamide gel electrophoresis on 20% TBE-urea gels. To maintain strand separation for long extension products, as in FIGS. 3F-31I, an unlabeled DNA oligonucleotide complementary to the template was added to the quenching buffer (˜2 μM) prior to denaturation. Typically, 3 or 4 μL of quenched sample was loaded per lane for gels of 0.75-mm thickness. Bands were visualized with a Typhoon laser scanning imager (GE Amersham) and quantified with the manufacturer's software. For acid digestion of extended products, a reaction sample was diluted with 2.5 volumes of 1% acetic acid, 10 mM EDTA in formamide and digested at 75° C. for 45 min prior to gel separation.
# [2] = test system: 3′-amino terminal DNA primer / DNA template duplex; assay: 3′-amino primer extension assay (single nucleotide addition, pre-steady-state NP activity); type: biochemical
# Experimental: as §1
molecule,measurement,setting,value
"F710Y: B. stearothermophilus DNA polymerase I large fragment (BF) with single active site mutation F710Y in the O helix (protein, listed as Bacillus stearothermophilus) MKNKLVLIDGNSVAYRAFFALPLLHNDKGIHTNAVYGFTMMLNKILAEEQPTHILVAFDAGKTTFRHETFQDYKGGRQQTPPELSEQFPLLRELLKAYRIPAYELDHYEADDIIGTMAARAEREGFAVKVISGDRDLTQLASPQVTVEITKKGITDIESYTPETVVEKYGLTPEQIVDLKGLMGDKSDNIPGVPGIGEKTAVKLLKQFGTVENVLASIDEIKGEKLKENLRQYRDLALLSKQLAAICRDAPVELTLDDIVYKGEDREKVVALFQELGFQSFLDKMAVQTDEGEKPLAGMDFAIADSVTDEMLADKAALVVEVVGDNYHHAPIVGIALANERGRFFLRPETALADPKFLAWLGDETKKKTMFDSKRAAVALKWKGIELRGVVFDLLLAAYLLDPAQAAGDVAAVAKMHQYEAVRSDEAVYGKGAKRTVPDEPTLAEHLVRKAAAIWALEEPLMDELRRNEQDRLLTELEQPLAGILANMEFTGVKVDTKRLEQMGAELTEQLQAVERRIYELAGQEFNINSPKQLGTVLFDKLQLPVLKKTKTGYSTSADVLEKLAPHHEIVEHILHYRQLGKLQSTYIEGLLKVVHPVTGKVHTMFNQALTQTGRLSSVEPNLQNIPIRLEEGRKIRQAFVPSEPDWLIFAADYSQIELRVLAHIAEDDNLIEAFRRGLDIHTKTAMDIFHVSEEDVTANMRRQAKAVNYGIVYGISDYGLAQNLNITRKEAAEFIERYFASFPGVKQYMDNIVQEAKQKGYVTTLLHRRRYLPDITSRNFNVRSFAERTAMNTPIQGSAADIIKKAMIDLSVRLREERLQARLLLQVHDELILEAPKEEIERLCRLVPEVMEQAVTLRVPLKVDYHYGPTWYDAK",time to full length +28 nt NP-DNA product,[1],< 24 h
same,"Selectivity dCTP/nCTP, ratio (kpol/Kd, app)dCTP/(kpol/Kd, app)nCTP","[2]; 10 mM CaCl2, pre-steady-state",9
same,Kd,"[2]; 3′-amino primer extension, 10 mM CaCl2, pre-steady-state, read-out: Kd, app dCTP",1.1 µM
same,Kd,"[2]; 3′-amino primer extension, 10 mM CaCl2, pre-steady-state, read-out: Kd, app nCTP",3.6 µM
same,kpol dCTP,"[2]; 3′-amino primer extension, varying dCTP, 10 mM CaCl2, pre-steady-state, 55° C., pH 8.8",0.191 min⁻¹
same,kpol nCTP,"[2]; 3′-amino primer extension, varying nCTP, 10 mM CaCl2, pre-steady-state, 55° C., pH 8.8",0.069 min⁻¹
same,increase in kpol for dCTP vs. wild-type,[2]; Ca2+ cofactor,2.6 fold
same,increase in kpol for nCTP (NP activity) vs. wild-type,[2]; Ca2+ cofactor,21 fold
same,transient kpol/Kd for NP-DNA synthesis with Ca2+,"[2]; nCTP, Ca2+, from Table 4",320 M⁻¹ s⁻¹
same,"maximum reaction velocity / NP activity, Ca2+ vs. Mg2+","[2]; saturating Ca2+ vs. Mg2+, faster with Ca2+",5 fold
same,"apparent binding affinity for nCTP vs. dCTP, effect of the mutation",[2]; with Ca2+,unaffected
same,kinetic disadvantage of NP-DNA polymerase activity relative to native phosphodiester bond forming activity,[2]; with F710Y,approximately four orders-of-magnitude
